By Km is commonly meant the concentration of substrate that gives half-maximal velocity. The term Vmax denotes the top rate of the reaction or transport when substrate is in excess. The term kcat denotes the maximal rate divided by the concentration of active sites. The term kcat/Km denotes the second-order rate constant that governs catalysis at low substrate concentration.

Common to all, as to assay: purified protein
Substrate in data set [1]: NC(=O)C1=CN([C@@H]2O[C@H](COP(=O)(O)OP(=O)(O)OC[C@H]3O[C@@H](n4cnc5c(N)ncnc54)[C@H](OP(=O)(O)O)[C@@H]3O)[C@@H](O)[C@H]2O)C=CC1
It counts as biochemical, Desulfurella amilsii. The conditions noted are these: 300 μM MTT, 50 mM potassium phosphate pH 6.5, 45°C.

Substrate in data set [2]: NC(=O)c1ccc[n+]([C@@H]2O[C@H](COP(=O)(O)OP(=O)(O)OC[C@H]3O[C@@H](n4cnc5c(N)ncnc54)[C@H](OP(=O)(O)O)[C@@H]3O)[C@@H](O)[C@H]2O)c1
It counts as biochemical, Desulfurella amilsii. As to conditions: reduced methylviologen as donor, pH 6.5, 45°C.

Substrate in data set [3]: NC(=O)C1=CN([C@@H]2O[C@H](COP(=O)(O)OP(=O)(O)OC[C@H]3O[C@@H](n4cnc5c(N)ncnc54)[C@H](O)[C@@H]3O)[C@@H](O)[C@H]2O)C=CC1
It counts as biochemical, Allochromatium vinosum. The conditions noted are these: 300 μM MTT, 50 mM potassium phosphate pH 7.0, 30°C.

Substrate in data set [4]: NC(=O)C1=CN([C@@H]2O[C@H](COP(=O)(O)OP(=O)(O)OC[C@H]3O[C@@H](n4cnc5c(N)ncnc54)[C@H](OP(=O)(O)O)[C@@H]3O)[C@@H](O)[C@H]2O)C=CC1
It counts as biochemical, Allochromatium vinosum. As to conditions: 300 μM MTT, 50 mM potassium phosphate pH 7.0, 30°C.

Substrate in data set [5]: NC(=O)c1ccc[n+]([C@@H]2O[C@H](COP(=O)(O)OP(=O)(O)OC[C@H]3O[C@@H](n4cnc5c(N)ncnc54)[C@H](O)[C@@H]3O)[C@@H](O)[C@H]2O)c1
It counts as biochemical, Allochromatium vinosum. The conditions noted are these: reduced methylviologen as donor, pH 7.0, 30°C.

Substrate in data set [6]: NC(=O)c1ccc[n+]([C@@H]2O[C@H](COP(=O)(O)OP(=O)(O)OC[C@H]3O[C@@H](n4cnc5c(N)ncnc54)[C@H](OP(=O)(O)O)[C@@H]3O)[C@@H](O)[C@H]2O)c1
It is filed as biochemical, Allochromatium vinosum. As to conditions: reduced methylviologen as donor, pH 7.0, 30°C.

Substrate in data set [7]: NC(=O)C1=CN([C@@H]2O[C@H](COP(=O)(O)OP(=O)(O)OC[C@H]3O[C@@H](n4cnc5c(N)ncnc54)[C@H](O)[C@@H]3O)[C@@H](O)[C@H]2O)C=CC1
It is filed as biochemical, Chlorobaculum tepidum. The conditions noted are these: 300 μM MTT, 50 mM potassium phosphate pH 8.0, 40°C.

Substrate in data set [8]: NC(=O)c1ccc[n+]([C@@H]2O[C@H](COP(=O)(O)OP(=O)(O)OC[C@H]3O[C@@H](n4cnc5c(N)ncnc54)[C@H](O)[C@@H]3O)[C@@H](O)[C@H]2O)c1
It counts as biochemical, Chlorobaculum tepidum. As to conditions: reduced methylviologen as donor, pH 8.0, 40°C.

B1: DaDsrL-2 (Desulfurella amilsii) (protein)
chain: MAVVKVKKSIKSFSKPSGTEYSSDRPIYVEKRPPCSDTCPNGEQVREFLQYIAQAQDYGRTYEEALEGAFYIIAQTNSMPATTGRICPHPCESRCNRKDKDSAVNINASEMFIGDFAVQNKLPLKKLDETYDAKVAVIGSGPSGLSCAYHLARRGVKVTIFEKEEKPGGLLYYGIPNFRLPKEIVSAEIQRIVDLGVDIKYGKAVGKDIGIEDLKKEFDCIYVATGAYKPEKPNLENIDNIKGVYSGLEFLYHFAKGERIDIGKDVVVVGADTAADAAMISKRWGANVTFAYRRTVPDKETFDKKASREAIDAYEEGITFQFATVPVELVSENGKLTGVKFQKIKVGAKDERGHAAQVENIGEPFLVKADAFIYSVGQKPDYSGLEKLLGQSEGFVKIKDNYQVEGQDKVFAGGDVVGPRLMYVTTAIGHGFAAAVNMIEYLTGKKVIEKDTRKVIESDKMHLDLYEAKPRHERKLRDPIERIKDFEPFMNGLSMEEFIEEAKRCMSCGLCFDCGNCFTYCSHSGVKKLPKGQHYEFHLETCDGCMKCFENCPCGYIEKM
notes: full length, C-terminal Strep-tag (… from primer), E. coli BL21(DE3) ΔiscR; primer-coded N-term MAVVKVK, C-term PCGYIEKM; contains YRR motif
Regarding B1, in data set [1], the Michaelis constant (Km) was determined as 124.5 ± 10.5 µM, the maximum rate (Vmax) is 103 µmol/min/mg, the kcat came out at 110 s⁻¹ and the kcat/Km was 870000 M⁻¹ s⁻¹. Also, in data set [2], the Km was found to be 22.0 ± 1.9 µM, the Vmax stood at 88.8 µmol/min/mg, the turnover number (kcat) came out at 94.3 s⁻¹ and the catalytic efficiency (kcat/Km) came to 4.2e+06 M⁻¹ s⁻¹.

B2: AvDsrL-1A (Allochromatium vinosum DSM 180) (protein)
chain: MATSSDEMKMKPTWRRFEDGEHVWDNLTDKIFNQDRSHKCPTYVHKTPPCQGSCPSGEDIRGWLQIVRGMEKPPQGMDWQEYAFRRSTDANPFPAMMGRVCPAPCQDGCNRNELEDFVGINSVEQFIGDTAIANGYTFEAPELDTGKRIAIVGGGPAGLAAAYQLRRKGHSCTIFEANDGLGGMFRFGIPGYRVPRDKLDAEIQRILDMGRVEVRLKTRIGTDVTVEQLEKDYDAILWAIGCQSGRGLPVPGWEGTPNCVTGVAFLKAFNEGRMKVTAGKVVCVGGGDTSIDVVSVARRLGHVNKSNPNELPETVIRDGYVAHDAASAAAAQGAEVTLTSLFTRDKMTASEHEVDDATREGVTILDGVMPVEVIKDANGRAIGLKVADCTMTDGRPTPVEGTERVLEADLIVSAIGQGGDLSGLEQLDNGRGLMDSDKFYQVPGKAGHFVAGDIIRPHLLTTAIGQAWIAADSIDAYVMQAEHKRRPKVDVHHFNLLDKLTEAHLAPESFVAGQAGDMRGTSDANYAIHNYEDRSGAEVIPHEELFLGHFNYVPRNLRKEEVPSADEVLGHFHERVIGLTEPEAIDEAKRCMSCGLCFECDNCVIFCPQDAVFRVDKGSRTTGRYVDTDYAKCIGCHICADVCPTGYIKMGLGE
notes: full length, C-terminal Strep-tag (… from primer), E. coli BL21(DE3) ΔiscR; primer-coded N-term MATSS, C-term IKMGLGE; FAD and four [4Fe-4S] per monomer; homodimer
In the case of B2, in data set [3], the Km turned out to be 86.7 ± 17.0 µM, the Vmax was found to be 11.2 µmol/min/mg, the kcat was found to be 13.5 s⁻¹ and the kcat/Km is 156000 M⁻¹ s⁻¹. Moreover, in data set [4], the Km is 1667.0 ± 230.2 µM, the Vmax is 4 µmol/min/mg, the kcat is 4.9 s⁻¹ and the kcat/Km came to 3000 M⁻¹ s⁻¹. In data set [5], the Km turned out to be 123.9 ± 10.3 µM, the Vmax was found to be 145 µmol/min/mg, the kcat came to 176 s⁻¹ and the kcat/Km stood at 1.42e+06 M⁻¹ s⁻¹. In data set [6], the Km amounted to 2563.0 ± 272.1 µM, the Vmax was found to be 120 µmol/min/mg, the kcat turned out to be 146 s⁻¹ and the kcat/Km came to 57000 M⁻¹ s⁻¹.

B3: CtDsrL-1B (Chlorobaculum tepidum TLS) (protein)
chain: MNAESNPILDFATEYVYPAFSELTGTDKIVAFGDHSHKCPIYVPQTPPCTAECPAGEDIRAINRFLNGTDPSDDPLKSAWETATDTNPFPAVMGRICPHPCQSKCNRGVHDESVAINAVEQVLGNYGIEHNLKLKGPGADTGKRVAIIGGGPAGLSAAYQLRRKGHAVTIYDANEKLGGMVLYGIMGYRVDRKVLEAEIGRIIELGVETKMGVTIGKDITLEQLEAEYDAVFIAVGAQKGRALPVPGFEGTPGATNAIDFLKSYEVLGDDIPVGKHVVVIGDGNVAMDVARLALRLGSQATIISGVPREEMACFENEFDDAKNEGTTMHFLTGTVEVLGGASGVTGLRCTKMVKKEKGEEGWNSPIPFLRYKSNGESFEIEADMVVAAIGQATDLSGLGSAASGPWLKVDRNFRIPGREKLFGGGDALKVDLITTAVGHGRKAAYAIDAFLKGEPMPEEPYREITKPHKQDLLYFLHTPQAKRTSIKPEVVVGNHDELLEALTPEQAITESKRCMSCGFCFDCKQCVSFCPQEAITRFRDNPAGEKVYTDYTKCVGCHLCSLVCPCGYIQMGMGDGL
notes: full length (577 residues), C-terminal Strep-tag (… from primer), E. coli BL21(DE3) ΔiscR; primer-coded N-term MNAESNP, C-term GMGDGL
Consider B3, for which, in data set [7], the Km turned out to be 267.5 ± 20.5 µM, the Vmax turned out to be 436 µmol/min/mg, the kcat worked out at 460 s⁻¹ and the kcat/Km came to 1.72e+06 M⁻¹ s⁻¹. In data set [8], the Km was found to be 95.2 ± 9.9 µM, the Vmax was determined as 366 µmol/min/mg, the kcat is 387 s⁻¹ and the specificity constant (kcat/Km) stood at 4.06e+06 M⁻¹ s⁻¹.

For the origin of these results see article PMC7596348, “The Iron-Sulfur Flavoprotein DsrL as NAD(P)H:Acceptor Oxidoreductase in Oxidative and Reductive Dissimilatory Sulfur Metabolism” (Frontiers in Microbiology, 2020).
